Results from the supplement of paper PMC6379048.

Experiments:
Assay in all cases: Kd (EC50 corrected by depletion factor)
HNRNPM = target: T1, HNRNPM (UniProt P52272)
T1 sequence: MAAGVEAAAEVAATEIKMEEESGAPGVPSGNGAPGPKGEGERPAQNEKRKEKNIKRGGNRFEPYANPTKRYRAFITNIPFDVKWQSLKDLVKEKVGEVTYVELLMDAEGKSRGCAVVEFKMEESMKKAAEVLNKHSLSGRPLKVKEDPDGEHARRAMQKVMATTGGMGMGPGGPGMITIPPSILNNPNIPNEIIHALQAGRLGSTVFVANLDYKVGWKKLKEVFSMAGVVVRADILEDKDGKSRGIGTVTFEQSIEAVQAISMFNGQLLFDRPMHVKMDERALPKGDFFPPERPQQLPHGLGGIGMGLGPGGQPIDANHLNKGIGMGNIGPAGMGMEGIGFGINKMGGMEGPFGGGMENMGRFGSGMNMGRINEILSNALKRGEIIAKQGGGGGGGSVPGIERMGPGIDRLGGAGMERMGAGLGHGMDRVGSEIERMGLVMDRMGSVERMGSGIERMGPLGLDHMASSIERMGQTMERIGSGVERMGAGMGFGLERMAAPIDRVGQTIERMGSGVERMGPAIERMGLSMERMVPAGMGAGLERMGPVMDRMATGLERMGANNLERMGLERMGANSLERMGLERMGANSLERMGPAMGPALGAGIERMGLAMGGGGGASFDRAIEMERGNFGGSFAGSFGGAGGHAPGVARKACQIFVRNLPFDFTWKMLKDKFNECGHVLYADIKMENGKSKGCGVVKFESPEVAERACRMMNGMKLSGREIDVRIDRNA
In short: (§1)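 Over three biological replicates and two independent experiments, proteins captured on NHS-Sepharose beads carrying 5′-amino-C6 RNA oligos were quantified by label-free LC-MS/MS and normalised to the control. Capture lasted 30 min at 4°C and followed a 1 h pre-incubation at 4°C of HEK293-FT lysate (2.5 mg protein/well) with the same oligos in free form (0 nM to 30 μM). EC50 was taken from a four-parameter log-logistic fit, and Kd was EC50 corrected by a protein-dependent depletion factor.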

LSM6 = target: T2, LSM6 (UniProt P62312)
T2 sequence: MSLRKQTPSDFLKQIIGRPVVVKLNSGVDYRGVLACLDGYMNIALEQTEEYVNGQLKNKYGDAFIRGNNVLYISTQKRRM
In short: as §1

MRPS23 = MRPS23 (UniProt Q9Y3D9)
In short: as §1

ZNFX1 = ZNFX1 (UniProt Q9P2E3)
Chain of ZNFX1 (Q9P2E3 whole entry): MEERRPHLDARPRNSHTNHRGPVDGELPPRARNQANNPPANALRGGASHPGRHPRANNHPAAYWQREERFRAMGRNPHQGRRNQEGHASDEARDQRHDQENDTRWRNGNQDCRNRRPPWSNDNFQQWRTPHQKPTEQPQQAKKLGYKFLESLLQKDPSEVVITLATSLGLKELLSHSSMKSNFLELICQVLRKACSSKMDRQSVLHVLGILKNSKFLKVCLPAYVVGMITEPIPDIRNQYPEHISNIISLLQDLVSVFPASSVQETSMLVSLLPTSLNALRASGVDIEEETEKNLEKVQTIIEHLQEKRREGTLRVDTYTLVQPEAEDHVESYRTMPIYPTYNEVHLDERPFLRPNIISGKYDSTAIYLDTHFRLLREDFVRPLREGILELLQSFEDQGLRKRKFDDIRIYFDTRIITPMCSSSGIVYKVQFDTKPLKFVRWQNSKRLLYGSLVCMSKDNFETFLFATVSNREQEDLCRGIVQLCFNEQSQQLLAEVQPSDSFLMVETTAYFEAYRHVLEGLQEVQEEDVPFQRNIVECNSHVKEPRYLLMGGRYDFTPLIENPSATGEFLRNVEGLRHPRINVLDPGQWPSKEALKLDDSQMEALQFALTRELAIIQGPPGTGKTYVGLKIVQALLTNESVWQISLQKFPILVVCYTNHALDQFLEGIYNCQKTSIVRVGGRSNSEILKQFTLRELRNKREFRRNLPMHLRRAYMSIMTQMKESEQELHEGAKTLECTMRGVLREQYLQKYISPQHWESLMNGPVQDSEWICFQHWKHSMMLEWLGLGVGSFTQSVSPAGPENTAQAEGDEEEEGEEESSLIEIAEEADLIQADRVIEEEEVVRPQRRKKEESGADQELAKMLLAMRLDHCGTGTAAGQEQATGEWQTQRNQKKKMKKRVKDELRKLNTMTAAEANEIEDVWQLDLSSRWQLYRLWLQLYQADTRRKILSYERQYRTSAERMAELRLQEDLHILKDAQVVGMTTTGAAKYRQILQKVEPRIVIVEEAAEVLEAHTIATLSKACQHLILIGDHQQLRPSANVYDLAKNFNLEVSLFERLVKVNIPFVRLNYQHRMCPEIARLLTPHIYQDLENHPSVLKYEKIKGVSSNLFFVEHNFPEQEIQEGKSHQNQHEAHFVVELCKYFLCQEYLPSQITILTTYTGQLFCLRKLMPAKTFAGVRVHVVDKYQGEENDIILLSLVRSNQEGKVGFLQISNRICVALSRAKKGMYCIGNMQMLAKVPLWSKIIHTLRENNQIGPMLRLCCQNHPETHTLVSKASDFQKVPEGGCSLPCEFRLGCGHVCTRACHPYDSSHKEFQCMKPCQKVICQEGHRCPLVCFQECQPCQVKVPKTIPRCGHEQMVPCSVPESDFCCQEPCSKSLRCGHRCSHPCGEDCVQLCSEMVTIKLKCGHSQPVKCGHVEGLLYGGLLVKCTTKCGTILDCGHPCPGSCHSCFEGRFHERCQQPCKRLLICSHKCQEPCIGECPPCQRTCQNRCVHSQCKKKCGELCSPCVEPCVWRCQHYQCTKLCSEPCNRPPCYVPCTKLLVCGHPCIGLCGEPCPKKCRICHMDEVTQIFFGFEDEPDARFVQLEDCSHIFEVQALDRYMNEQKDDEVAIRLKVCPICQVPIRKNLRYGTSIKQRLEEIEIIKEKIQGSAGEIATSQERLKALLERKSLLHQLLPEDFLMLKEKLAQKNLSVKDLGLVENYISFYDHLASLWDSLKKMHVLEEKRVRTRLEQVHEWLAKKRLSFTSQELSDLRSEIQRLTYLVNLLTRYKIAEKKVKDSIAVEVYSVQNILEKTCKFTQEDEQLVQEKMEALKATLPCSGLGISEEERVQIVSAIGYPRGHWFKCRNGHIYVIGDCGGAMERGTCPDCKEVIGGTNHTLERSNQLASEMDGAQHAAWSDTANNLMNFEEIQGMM
In short: as §1

MCM4 = target: T3, MCM4 (UniProt P33991)
T3 sequence: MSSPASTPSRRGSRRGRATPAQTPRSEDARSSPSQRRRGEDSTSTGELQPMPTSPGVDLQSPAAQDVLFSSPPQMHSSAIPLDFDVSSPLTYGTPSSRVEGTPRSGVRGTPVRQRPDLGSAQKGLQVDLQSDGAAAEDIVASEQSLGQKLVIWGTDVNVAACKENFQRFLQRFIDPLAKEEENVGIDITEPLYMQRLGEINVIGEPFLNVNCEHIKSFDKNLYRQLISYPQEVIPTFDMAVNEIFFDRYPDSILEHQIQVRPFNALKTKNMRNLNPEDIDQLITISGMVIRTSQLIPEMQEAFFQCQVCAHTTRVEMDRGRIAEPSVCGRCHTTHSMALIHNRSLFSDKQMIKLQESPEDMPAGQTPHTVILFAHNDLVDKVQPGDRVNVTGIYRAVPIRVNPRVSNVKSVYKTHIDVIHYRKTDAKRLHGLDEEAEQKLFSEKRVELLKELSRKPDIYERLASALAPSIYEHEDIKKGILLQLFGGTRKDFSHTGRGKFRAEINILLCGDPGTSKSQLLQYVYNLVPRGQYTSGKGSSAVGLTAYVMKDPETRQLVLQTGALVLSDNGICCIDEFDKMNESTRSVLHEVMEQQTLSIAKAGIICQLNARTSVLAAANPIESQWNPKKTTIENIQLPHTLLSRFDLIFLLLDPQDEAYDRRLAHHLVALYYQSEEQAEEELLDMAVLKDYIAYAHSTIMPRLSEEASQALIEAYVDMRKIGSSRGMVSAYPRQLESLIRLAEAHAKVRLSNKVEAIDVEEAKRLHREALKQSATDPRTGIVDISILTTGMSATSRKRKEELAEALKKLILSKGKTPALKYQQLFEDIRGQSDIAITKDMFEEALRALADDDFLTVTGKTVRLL
In short: as §1

P4HA1 = P4HA1 (UniProt P13674)
Chain of P4HA1 (P13674 whole entry): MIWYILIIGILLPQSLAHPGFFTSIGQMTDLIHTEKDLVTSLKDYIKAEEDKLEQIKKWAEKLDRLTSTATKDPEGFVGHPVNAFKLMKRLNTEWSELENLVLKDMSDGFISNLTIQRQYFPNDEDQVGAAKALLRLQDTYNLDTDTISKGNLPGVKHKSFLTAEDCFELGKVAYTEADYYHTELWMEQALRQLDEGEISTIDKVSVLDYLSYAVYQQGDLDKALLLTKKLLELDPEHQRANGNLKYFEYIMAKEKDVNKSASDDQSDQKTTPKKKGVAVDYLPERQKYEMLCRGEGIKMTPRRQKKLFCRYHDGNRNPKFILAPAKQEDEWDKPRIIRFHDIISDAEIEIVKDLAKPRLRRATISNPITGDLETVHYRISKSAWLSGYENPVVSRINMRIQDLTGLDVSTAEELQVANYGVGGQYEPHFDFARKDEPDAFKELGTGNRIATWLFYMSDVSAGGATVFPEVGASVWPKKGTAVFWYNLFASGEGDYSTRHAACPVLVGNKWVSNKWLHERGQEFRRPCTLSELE
In short: as §1

PUF60 = target: T4, PUF60 (UniProt Q9UHX1)
T4 sequence: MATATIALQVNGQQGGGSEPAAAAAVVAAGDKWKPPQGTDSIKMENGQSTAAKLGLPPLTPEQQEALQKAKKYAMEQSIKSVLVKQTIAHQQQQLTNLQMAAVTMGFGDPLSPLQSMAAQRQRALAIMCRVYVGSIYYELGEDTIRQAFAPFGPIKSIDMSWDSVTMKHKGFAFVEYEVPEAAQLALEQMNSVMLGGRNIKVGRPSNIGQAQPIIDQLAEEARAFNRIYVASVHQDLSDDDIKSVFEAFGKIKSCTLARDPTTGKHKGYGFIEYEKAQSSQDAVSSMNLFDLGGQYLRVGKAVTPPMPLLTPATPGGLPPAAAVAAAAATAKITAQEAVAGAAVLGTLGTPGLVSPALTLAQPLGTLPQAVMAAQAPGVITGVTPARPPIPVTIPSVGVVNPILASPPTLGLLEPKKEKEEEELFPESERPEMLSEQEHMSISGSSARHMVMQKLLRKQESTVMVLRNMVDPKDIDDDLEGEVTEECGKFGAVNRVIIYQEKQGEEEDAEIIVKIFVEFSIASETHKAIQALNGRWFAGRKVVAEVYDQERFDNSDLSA
In short: as §1

SRSF10 = SRSF10 (UniProt O75494)
Chain of SRSF10 (O75494 whole entry): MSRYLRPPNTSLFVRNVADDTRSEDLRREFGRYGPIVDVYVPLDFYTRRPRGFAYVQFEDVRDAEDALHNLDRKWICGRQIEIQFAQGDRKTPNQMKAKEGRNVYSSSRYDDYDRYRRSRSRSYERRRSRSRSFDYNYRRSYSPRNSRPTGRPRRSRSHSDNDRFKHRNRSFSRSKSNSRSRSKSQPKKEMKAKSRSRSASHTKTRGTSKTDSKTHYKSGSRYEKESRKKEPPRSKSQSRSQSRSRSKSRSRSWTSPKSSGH
In short: as §1

Sequence | Kd (HNRNPM) | Kd (LSM6) | Kd (MRPS23) | Kd (ZNFX1) | Kd (MCM4) | Kd (P4HA1) | Kd (PUF60) | Kd (SRSF10)
UAUUUAU | 4410 nM | 275 nM | 15.6 nM | 374 nM | – | – | – | –
AAUAAA | – | – | – | – | 25.8 nM | 23.8 nM | 162 nM | 156 nM
